{
  "source": "the Human Domainome abundance scans (Beltran et al. 2025)",
  "note": "± gives the uncertainty stated by the source.",
  "data": [
    {"assay": "abundance fitness (aPCA) (normalised: wild type 0, dead -1); higher = more abundant; growth selection in yeast, the domain comes from the species named", "conditions": "Homo sapiens", "values": [
      {"substance": "Scaffold attachment factor B1 E74K, Q15424", "abundance fitness": "-0.213 ± 0.089"},
      {"substance": "Scaffold attachment factor B1 E76L, Q15424", "abundance fitness": "-0.199 ± 0.062"},
      {"substance": "Scaffold attachment factor B1 N71L, Q15424", "abundance fitness": "-0.299 ± 0.062"},
      {"substance": "Scaffold attachment factor B1 E80T, Q15424", "abundance fitness": "-0.675 ± 0.2"},
      {"substance": "Scaffold attachment factor B1 R29D, Q15424", "abundance fitness": "-0.37 ± 0.091"},
      {"substance": "Scaffold attachment factor B1 T26D, Q15424", "abundance fitness": "-0.915 ± 0.36"},
      {"substance": "Scaffold attachment factor B1 L31T, Q15424", "abundance fitness": "-0.53 ± 0.1"},
      {"substance": "Scaffold attachment factor B1 I37G, Q15424", "abundance fitness": "-0.028 ± 0.05"},
      {"substance": "Scaffold attachment factor B1 D73S, Q15424", "abundance fitness": "-0.243 ± 0.061"},
      {"substance": "Scaffold attachment factor B1 I75E, Q15424", "abundance fitness": "-0.459 ± 0.09"},
      {"substance": "Scaffold attachment factor B1 K62I, Q15424", "abundance fitness": "-0.336 ± 0.078"},
      {"substance": "Scaffold attachment factor B1 A41C, Q15424", "abundance fitness": "-0.317 ± 0.08"},
      {"substance": "Scaffold attachment factor B1 G52I, Q15424", "abundance fitness": "-1.72 ± 0.32"},
      {"substance": "Scaffold attachment factor B1 N71P, Q15424", "abundance fitness": "-0.365 ± 0.076"},
      {"substance": "Scaffold attachment factor B1 E80V, Q15424", "abundance fitness": "-0.223 ± 0.059"},
      {"substance": "Scaffold attachment factor B1 S32H, Q15424", "abundance fitness": "-0.493 ± 0.1"},
      {"substance": "Scaffold attachment factor B1 K62F, Q15424", "abundance fitness": "-0.366 ± 0.078"},
      {"substance": "Scaffold attachment factor B1 E76V, Q15424", "abundance fitness": "-0.044 ± 0.049"},
      {"substance": "Scaffold attachment factor B1 E59V, Q15424", "abundance fitness": "-0.125 ± 0.046"},
      {"substance": "Scaffold attachment factor B1 D38V, Q15424", "abundance fitness": "-0.629 ± 0.052"},
      {"substance": "Scaffold attachment factor B1 L39T, Q15424", "abundance fitness": "-0.983 ± 0.091"},
      {"substance": "Scaffold attachment factor B1 R60V, Q15424", "abundance fitness": "-0.432 ± 0.069"},
      {"substance": "Scaffold attachment factor B1 D73Q, Q15424", "abundance fitness": "-0.362 ± 0.11"},
      {"substance": "Scaffold attachment factor B1 L61M, Q15424", "abundance fitness": "-0.336 ± 0.083"},
      {"substance": "Scaffold attachment factor B1 L34P, Q15424", "abundance fitness": "-0.619 ± 0.074"},
      {"substance": "Scaffold attachment factor B1 D73V, Q15424", "abundance fitness": "-0.23 ± 0.053"},
      {"substance": "Scaffold attachment factor B1 S79F, Q15424", "abundance fitness": "-0.239 ± 0.08"},
      {"substance": "Scaffold attachment factor B1 K54S, Q15424", "abundance fitness": "-0.259 ± 0.072"},
      {"substance": "Scaffold attachment factor B1 K54G, Q15424", "abundance fitness": "-0.234 ± 0.05"},
      {"substance": "Scaffold attachment factor B1 E68Q, Q15424", "abundance fitness": "-0.279 ± 0.049"},
      {"substance": "Scaffold attachment factor B1 V36K, Q15424", "abundance fitness": "-0.19 ± 0.078"},
      {"substance": "Scaffold attachment factor B1 S50E, Q15424", "abundance fitness": "-0.278 ± 0.078"},
      {"substance": "Scaffold attachment factor B1 S79P, Q15424", "abundance fitness": "-0.108 ± 0.06"},
      {"substance": "Scaffold attachment factor B1 S79N, Q15424", "abundance fitness": "-0.264 ± 0.091"},
      {"substance": "Scaffold attachment factor B1 P72D, Q15424", "abundance fitness": "-0.407 ± 0.1"},
      {"substance": "Scaffold attachment factor B1 S51I, Q15424", "abundance fitness": "-0.153 ± 0.089"},
      {"substance": "Scaffold attachment factor B1 R44G, Q15424", "abundance fitness": "-0.096 ± 0.064"},
      {"substance": "Scaffold attachment factor B1 G69H, Q15424", "abundance fitness": "-0.292 ± 0.11"},
      {"substance": "Scaffold attachment factor B1 N53R, Q15424", "abundance fitness": "-0.067 ± 0.049"},
      {"substance": "Scaffold attachment factor B1 R60Y, Q15424", "abundance fitness": "-0.642 ± 0.11"},
      {"substance": "Scaffold attachment factor B1 L31H, Q15424", "abundance fitness": "-0.575 ± 0.072"},
      {"substance": "Scaffold attachment factor B1 R35A, Q15424", "abundance fitness": "-0.112 ± 0.059"},
      {"substance": "Scaffold attachment factor B1 I75R, Q15424", "abundance fitness": "-0.285 ± 0.057"},
      {"substance": "Scaffold attachment factor B1 L31R, Q15424", "abundance fitness": "-0.509 ± 0.051"},
      {"substance": "Scaffold attachment factor B1 I77K, Q15424", "abundance fitness": "-0.136 ± 0.073"},
      {"substance": "Scaffold attachment factor B1 R60Q, Q15424", "abundance fitness": "-0.445 ± 0.081"},
      {"substance": "Scaffold attachment factor B1 D49H, Q15424", "abundance fitness": "-0.396 ± 0.097"},
      {"substance": "Scaffold attachment factor B1 E66N, Q15424", "abundance fitness": "-0.202 ± 0.075"},
      {"substance": "Scaffold attachment factor B1 L43D, Q15424", "abundance fitness": "-0.858 ± 0.1"},
      {"substance": "Scaffold attachment factor B1 R46E, Q15424", "abundance fitness": "-0.954 ± 0.1"},
      {"substance": "Scaffold attachment factor B1 I37L, Q15424", "abundance fitness": "-0.124 ± 0.056"},
      {"substance": "Scaffold attachment factor B1 T28N, Q15424", "abundance fitness": "-0.196 ± 0.099"},
      {"substance": "Scaffold attachment factor B1 S50L, Q15424", "abundance fitness": "-0.234 ± 0.058"},
      {"substance": "Scaffold attachment factor B1 N47Q, Q15424", "abundance fitness": "-0.227 ± 0.067"},
      {"substance": "Scaffold attachment factor B1 V48L, Q15424", "abundance fitness": "-0.056 ± 0.065"},
      {"substance": "Scaffold attachment factor B1 R40M, Q15424", "abundance fitness": "-0.329 ± 0.075"},
      {"substance": "Scaffold attachment factor B1 N53W, Q15424", "abundance fitness": "-0.712 ± 0.059"},
      {"substance": "Scaffold attachment factor B1 I75L, Q15424", "abundance fitness": "-0.099 ± 0.054"},
      {"substance": "Scaffold attachment factor B1 K63M, Q15424", "abundance fitness": "-0.43 ± 0.07"},
      {"substance": "Scaffold attachment factor B1 K63A, Q15424", "abundance fitness": "-0.202 ± 0.053"},
      {"substance": "Scaffold attachment factor B1 R46P, Q15424", "abundance fitness": "-0.937 ± 0.12"},
      {"substance": "Scaffold attachment factor B1 D38R, Q15424", "abundance fitness": "-0.618 ± 0.055"},
      {"substance": "Scaffold attachment factor B1 K63D, Q15424", "abundance fitness": "-0.255 ± 0.094"},
      {"substance": "Scaffold attachment factor B1 L61K, Q15424", "abundance fitness": "-0.788 ± 0.12"},
      {"substance": "Scaffold attachment factor B1 K54T, Q15424", "abundance fitness": "-0.189 ± 0.057"},
      {"substance": "Scaffold attachment factor B1 L31V, Q15424", "abundance fitness": "-0.188 ± 0.06"},
      {"substance": "Scaffold attachment factor B1 E76P, Q15424", "abundance fitness": "-0.069 ± 0.083"},
      {"substance": "Scaffold attachment factor B1 M58G, Q15424", "abundance fitness": "-0.368 ± 0.056"},
      {"substance": "Scaffold attachment factor B1 G27Q, Q15424", "abundance fitness": "-0.334 ± 0.08"},
      {"substance": "Scaffold attachment factor B1 A41G, Q15424", "abundance fitness": "-0.095 ± 0.063"},
      {"substance": "Scaffold attachment factor B1 V56A, Q15424", "abundance fitness": "-0.101 ± 0.059"},
      {"substance": "Scaffold attachment factor B1 G69I, Q15424", "abundance fitness": "-0.376 ± 0.084"},
      {"substance": "Scaffold attachment factor B1 R60L, Q15424", "abundance fitness": "-0.335 ± 0.053"},
      {"substance": "Scaffold attachment factor B1 E74L, Q15424", "abundance fitness": "-0.125 ± 0.053"},
      {"substance": "Scaffold attachment factor B1 A41Q, Q15424", "abundance fitness": "-0.257 ± 0.072"},
      {"substance": "Scaffold attachment factor B1 I75P, Q15424", "abundance fitness": "-0.31 ± 0.084"},
      {"substance": "Scaffold attachment factor B1 V36H, Q15424", "abundance fitness": "-0.409 ± 0.098"},
      {"substance": "Scaffold attachment factor B1 L34S, Q15424", "abundance fitness": "-0.433 ± 0.065"},
      {"substance": "Scaffold attachment factor B1 L39P, Q15424", "abundance fitness": "-0.77 ± 0.1"}
    ]}
  ]
}
